{"source": "paper PMC8509827", "molecular_target": "ArsR6 (Flag-tagged, in the complemented strain C[change]) (Brucella suis S2)", "experiment": "cross-linking", "data": [{"substance": "ArsR6 (Flag-tagged, in the complemented strain C[change]) (natural protein)", "values": [{"measurement": "stoichiometry N", "value": 2}]}]}
